From paper doi:10.1101/2025.05.02.651988 (bioRxiv, 2025)
Like-named read-outs stand apart in the source and are kept apart here.

How the values were obtained:
Assay in all cases: cryo-EM structure
[1] = target: the molecule itself
[2] = target: E. coli RNA polymerase σ70 subunit (E. coli, UniProt P00579 1-613)
[3] = target: the molecule itself; remark: listed apart in the source

Chain of E. coli RNA polymerase σ70 subunit (P00579 whole entry): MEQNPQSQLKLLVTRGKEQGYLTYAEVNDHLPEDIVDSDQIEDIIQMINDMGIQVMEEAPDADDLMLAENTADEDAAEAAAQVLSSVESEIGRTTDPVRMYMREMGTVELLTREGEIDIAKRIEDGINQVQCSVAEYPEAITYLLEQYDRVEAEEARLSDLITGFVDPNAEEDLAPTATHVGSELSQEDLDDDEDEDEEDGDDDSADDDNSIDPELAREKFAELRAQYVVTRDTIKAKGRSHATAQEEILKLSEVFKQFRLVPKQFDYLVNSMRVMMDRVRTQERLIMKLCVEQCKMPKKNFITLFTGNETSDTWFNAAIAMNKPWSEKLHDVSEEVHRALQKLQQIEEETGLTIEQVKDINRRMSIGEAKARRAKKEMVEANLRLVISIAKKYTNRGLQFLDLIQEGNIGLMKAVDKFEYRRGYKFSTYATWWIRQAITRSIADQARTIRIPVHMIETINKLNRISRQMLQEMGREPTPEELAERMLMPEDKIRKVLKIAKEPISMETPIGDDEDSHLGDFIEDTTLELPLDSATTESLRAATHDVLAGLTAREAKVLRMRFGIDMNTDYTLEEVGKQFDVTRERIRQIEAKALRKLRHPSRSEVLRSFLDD

Row | Binder | stoichiometry N [1] | binding result [2] | stoichiometry N [3]
1 | phage Mu late gene transcription activator C (natural protein, bacteriophage Mu, UniProt P06022 1-140, looked up) MQHDLFEHDPAIRQLIGHIDNIPAPELESRWPRSVVDLIDVLENELKRQNVSNPRELARKQAVALSCFLGGRQFYIPCGDTILTALRDDLLYCQFNGRNMEELRRQYRLSQPQIYQIIARQRKLHTRRHQPDLFSPETPK | 4 |  | 
2 | phage Mu middle operon regulator Mor (natural protein, bacteriophage Mu, UniProt P23848 1-129, looked up) MTEDLFGDLQDDTILAHLDNPAEDTSRFPALLAELNDLLRGELSRLGVDPAHSLEIVVAICKHLGGGQVYIPRGQALDSLIRDLRIWNDFNGRNVSELTTRYGVTFNTVYKAIRRMRRLKYRQYQPSLL |  | binds | 4
